Test system: OTUB1

Sequence of UBCH5C (chain, as listed by the source): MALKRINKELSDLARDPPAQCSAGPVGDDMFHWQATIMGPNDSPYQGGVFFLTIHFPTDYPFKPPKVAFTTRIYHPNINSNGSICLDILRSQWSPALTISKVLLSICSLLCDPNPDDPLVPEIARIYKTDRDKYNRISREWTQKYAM

UBCH5C was tested, and the “free ubiquitin released in a real-time deubiquitinase assay (3 µM OTUB1 with or without UbcH5c, 1 nM Atto532-tagged ubiquitin, 1 nM tIVR)” value was “OTUB1 activity is upregulated by UbcH5c, and this was detected by the experiment”.

Reference: US20180364250
